Source: paper PMC10448441

Molecular target: T1, Integrin beta3 (CD61, GP3A), overexpressed on A549-ITGB3-OE cells (Homo sapiens) (UniProt P05106)
T1 sequence: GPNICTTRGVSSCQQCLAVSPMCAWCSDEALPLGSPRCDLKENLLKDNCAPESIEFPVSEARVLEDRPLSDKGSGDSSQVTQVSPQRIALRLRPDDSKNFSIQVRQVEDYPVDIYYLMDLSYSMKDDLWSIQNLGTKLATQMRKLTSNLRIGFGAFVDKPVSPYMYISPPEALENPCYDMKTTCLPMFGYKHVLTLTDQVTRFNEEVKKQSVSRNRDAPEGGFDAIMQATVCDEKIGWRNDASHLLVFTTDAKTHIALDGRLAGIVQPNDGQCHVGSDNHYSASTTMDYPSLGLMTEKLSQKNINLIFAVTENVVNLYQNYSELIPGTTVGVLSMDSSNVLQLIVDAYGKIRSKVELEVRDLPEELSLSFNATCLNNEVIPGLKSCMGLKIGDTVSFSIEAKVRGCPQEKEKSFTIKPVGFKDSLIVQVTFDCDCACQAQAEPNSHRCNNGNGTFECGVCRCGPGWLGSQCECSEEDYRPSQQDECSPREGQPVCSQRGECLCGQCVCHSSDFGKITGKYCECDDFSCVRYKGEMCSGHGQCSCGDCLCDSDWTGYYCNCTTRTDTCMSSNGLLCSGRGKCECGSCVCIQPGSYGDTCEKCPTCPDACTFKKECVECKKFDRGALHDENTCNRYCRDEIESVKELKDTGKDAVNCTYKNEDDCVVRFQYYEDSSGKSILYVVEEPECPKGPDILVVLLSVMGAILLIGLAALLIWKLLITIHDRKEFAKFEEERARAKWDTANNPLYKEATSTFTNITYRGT
Assay: flow cytometry
Conditions: live A549-ITGB3-OE cells, FAM label; PBS with 5 mM MgCl2, 4.5 g/L glucose, 100 ug/mL tRNA; 4 C, 30 min; pH not stated; pull-down on ice 30 min

Question: With “TCCACGATGTAGGATCCACATGAGCGCTCCTGTTACCCTG [S10yh2]” as the sequence, how does the Kd read?
Answer: 61.2 nM

Question: How did the Kd turn out when “TTCAGCACTCCACGCATAGCTCCACGATGTAGGATCCACATGAGCGCTCCTGTTACCCTGCCTATGCGTGCTACCGTGAA [S10]” was run?
Answer: 71.4 nM
